In patent US20260224620A1 (published 2026):

Molecular target: CD47 WT (YSD CD47) (UniProt Q08722 19-135)
Experiment: flow cytometry, yeast surface display

B1: B6H12 (antibody, V domains shown)
VH: EVQLVESGGDLVKPGGSLKLSCAASGFTFSGYGMSWVRQTPDKRLEWVATITSGGTYTYYPDSVKGRFTISRDNAKNTLYLQIDSLKSEDTAIYFCARSLAGNAMDYWGQGTSVTVSS
VL: DIVMTQSPATLSVTPGDRVSLSCRASQTISDYLHWYQQKSHESPRLLIKFASQSISGIPSRFSGSGSGSDFTLSINSVEPEDVGVYYCQNGHGFPRTFGGGTKLEIK
B1 showed a Kd of roughly 0.33 nM.
